From patent US20220112244A1 (DOMPE FARMACEUTICI S P A, published 2022) come the findings set out here.

The target in this assay is IL-17A (agonist in the IL-17RA/IL17RC dimerization assay) (UniProt Q16552 24-155). The assay is described as follows: cell-based or functional assay.
Chain of IL-17A (agonist in the IL-17RA/IL17RC dimerization assay) (Q16552 24-155 limits assumed): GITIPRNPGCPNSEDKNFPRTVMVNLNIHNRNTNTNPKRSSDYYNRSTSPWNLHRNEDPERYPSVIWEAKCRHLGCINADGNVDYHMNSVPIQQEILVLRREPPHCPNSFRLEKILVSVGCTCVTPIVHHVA
As to Ac-VHVSIPQELWEWVRR-NH2 [peptide of SEQ ID NO: 230], the “IC50 in IL-17RA/IL7RC dimerization assay” value is below 10 µM.
Then Ac-IHVTIPLEVFEWLQH-NH2 [peptide of SEQ ID NO: 249], with below 10 µM.
For Ac-VMVTIPADLYEWIEEGGTWWTEWSQ-NH2 [peptide of SEQ ID NO: 22] the value was below 1 µM; for Ac-IHVTIPLEIFEWAQH-NH2 [peptide of SEQ ID NO: 247], below 10 µM.
For Ac-VHVQIPADLWEWVRR-NH2 [peptide of SEQ ID NO: 113] the value was below 0.5 µM; for Ac-LRIYVPADLWDWINK-NH2 [peptide of SEQ ID NO: 241], below 10 µM; for Ac-VHVSVPQELWEWVRR-NH2 [peptide of SEQ ID NO: 231], below 10 µM.
For the molecule Ac-VHVTVPQEIYEWVRR-NH2 [peptide of SEQ ID NO: 236], the “IC50 in IL-17RA/IL7RC dimerization assay” value was below 10 µM.
Take Ac-VHVTVPQELYEWVEE-NH2 [peptide of SEQ ID NO: 229]: the “IC50 in IL-17RA/IL7RC dimerization assay” value was below 10 µM.
Then Ac-IHVTIPGEIFEWLQH-NH2 [peptide of SEQ ID NO: 250], with below 10 µM; and Ac-RRRRRRRRVMVTIPADLYEWIEE-NH2 [peptide of SEQ ID NO: 29], with below 1 µM.
Then Ac-VRGYVPADLWDWINK-NH2 [peptide of SEQ ID NO: 242], with below 10 µM; and Ac-VMVTIPADLYEWIEETWWETWW-NH2 [peptide of SEQ ID NO: 23], with below 1 µM.
For Ac-VRVTVPQELYEWVRR-NH2 [peptide of SEQ ID NO: 234] the value was below 10 µM; for Ac-VMVTIPADLYEWIEE-NH2 [peptide of SEQ ID NO: 18], below 0.4 µM; for Ac-VEFNFPQQVYEWFDD-NH2 [peptide of SEQ ID NO: 255], below 10 µM.
With Ac-VRIYLPADLWDWINK-NH2 [peptide of SEQ ID NO: 245], the “IC50 in IL-17RA/IL7RC dimerization assay” value was below 10 µM.
For Ac-LRISVPADLWDWINK-NH2 [peptide of SEQ ID NO: 240] the value was below 10 µM; for Ac-VHVSVPQELYEWVRR-NH2 [peptide of SEQ ID NO: 232], below 10 µM; for Ac-IHVTIPLEIFEWLQR-NH2 [peptide of SEQ ID NO: 248], below 10 µM.
For Ac-VPGWGVMVTIPADLYEWIEE-NH2 [peptide of SEQ ID NO: 34] the value was below 1 µM.
As for Ac-VMVTIPADLYEWIEERRRRRR-NH2 [peptide of SEQ ID NO: 19], the “IC50 in IL-17RA/IL7RC dimerization assay” value was below 1 µM.
Then Ac-VMVTIPADLYEWIEEVPGWG-NH2 [peptide of SEQ ID NO: 24], with below 1 µM; and Ac-VMVTIPADLYEWIEEVPGKG-NH2 [peptide of SEQ ID NO: 26], with below 1 µM; and Ac-IMVTIPADLWDWINK-NH2 [peptide of SEQ ID NO: 3], with below 0.4 µM.
Then Ac-ARKKAAKAVMVTIPADLYEWIEE-NH2 [peptide of SEQ ID NO: 31], with below 1 µM; and Ac-GGTWWTEWSQVMVTIPADLYEWIEE-NH2 [peptide of SEQ ID NO: 32], with below 1 µM; and Ac-VHVTFPADLWEWVRR-NH2 [peptide of SEQ ID NO: 114], with below 0.5 µM.
Then Ac-LRGSVPLEIFEWLQH-NH2 [peptide of SEQ ID NO: 253], with below 10 µM; and Ac-VHVTIPANLWEWVRR-NH2 [peptide of SEQ ID NO: 116], with below 0.5 µM.
Regarding Ac-VEFNFPQQVYEWVRR-NH2 [peptide of SEQ ID NO: 256], the “IC50 in IL-17RA/IL7RC dimerization assay” value is below 10 µM.
For Ac-VMVTIPADLYEWIEERRR-NH2 [peptide of SEQ ID NO: 20] the value was below 1 µM; for Ac-VHVTIPAELWEWVRR-NH2 [peptide of SEQ ID NO: 111], below 0.5 µM; for Ac-VMVTIPADLYEWIEEGGKETWWETW-NH2 [peptide of SEQ ID NO: 25], below 1 µM.
For the molecule Ac-VRVTVPQELWEWVRR-NH2 [peptide of SEQ ID NO: 235], the “IC50 in IL-17RA/IL7RC dimerization assay” value was below 10 µM.
Then Ac-LRISVPLEIFEWLQH-NH2 [peptide of SEQ ID NO: 252], with below 10 µM.
Turning to Ac-VPGKGVMVTIPADLYEWIEE-NH2 [peptide of SEQ ID NO: 36], the “IC50 in IL-17RA/IL7RC dimerization assay” value was below 1 µM.
Ac-VMVTIPADLYEWIEEARKKAAKA-NH2 [peptide of SEQ ID NO: 21]: the “IC50 in IL-17RA/IL7RC dimerization assay” value is below 1 µM.
With Ac-VMVTIPADLYEWIEERRRRRRRR-NH2 [peptide of SEQ ID NO: 30], the “IC50 in IL-17RA/IL7RC dimerization assay” value is below 1 µM.
Then Ac-TWYVFNEQHQEYVRK-NH2 [peptide of SEQ ID NO: 257], with below 10 µM.
Then Ac-VMVTIPADLYEWIEEVPGAG-NH2 [peptide of SEQ ID NO: 27], with below 1 µM; and Ac-VRAYVPADLWDWINK-NH2 [peptide of SEQ ID NO: 243], with below 10 µM.
Turning to Ac-VRLYVPADLWDWINK-NH2 [peptide of SEQ ID NO: 244], the “IC50 in IL-17RA/IL7RC dimerization assay” value was below 10 µM.
Then Ac-VKISVPADLWDWINK-NH2 [peptide of SEQ ID NO: 239], with below 10 µM; and Ac-VHVTIPQDLWEWVRR-NH2 [peptide of SEQ ID NO: 115], with below 0.5 µM.
Then Ac-VMVTIPADLYEWIRR-NH2 [peptide of SEQ ID NO: 17], with below 0.4 µM; and Ac-IHVTIPLEIFEWLQH-NH2 [peptide of SEQ ID NO: 246], with below 10 µM; and Ac-VRFSVPQEIYEWVRR-NH2 [peptide of SEQ ID NO: 251], with below 10 µM.
Then Ac-VHFTVPQELYEWVRR-NH2 [peptide of SEQ ID NO: 238], with below 10 µM; and Ac-VHVTIPADFWEWVRR-NH2 [peptide of SEQ ID NO: 117], with below 0.5 µM; and Ac-VHVTIPQEIWEWVRR-NH2 [peptide of SEQ ID NO: 237], with below 10 µM.
On to Ac-GGKETWWETWVMVTIPADLYEWIEE-NH2 [peptide of SEQ ID NO: 33], for which the “IC50 in IL-17RA/IL7RC dimerization assay” value was below 1 µM.
Take Ac-VKISVPLEIFEWLQH-NH2 [peptide of SEQ ID NO: 254]: the “IC50 in IL-17RA/IL7RC dimerization assay” value is below 10 µM.
For Ac-VPGAGVMVTIPADLYEWIEE-NH2 [peptide of SEQ ID NO: 35] the value was below 1 µM.
For Ac-VHFTIPADLWEWVRR-NH2 [peptide of SEQ ID NO: 112], the “IC50 in IL-17RA/IL7RC dimerization assay” value was below 0.5 µM.
For Ac-VMVTIPADLYEWIEERQIKIWFQNRRMKWKK-NH2 [peptide of SEQ ID NO: 28] the value was below 1 µM.
Then Ac-VRVTIPQELWEWVRR-NH2 [peptide of SEQ ID NO: 233], with below 10 µM.
